# Results taken from the supplement of paper PMC5998384.
# Key:
# [1] = test system: HeLa Kyoto; test: solubility in G1/S (NP-40 vs SDS abundance) (log2 ratio); higher = more soluble; details: cell cycle stage: G1/S
# [2] = test system: HeLa Kyoto; test: solubility change mitosis vs G1/S (difference of NP-40 vs SDS log2 ratios) (log2 ratio difference); higher = more soluble in mitosis
# 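Throughout, for solubility change mitosis vs G1/S (difference of NP-40 vs SDS log2 ratios): synchronized HeLa Kyoto cells (double thymidine block for G1/S, nocodazole release for mitosis), protein amounts in NP-40 versus SDS lysates quantified by mass spectrometry, three biological replicates.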
# 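Throughout, for solubility in G1/S (NP-40 vs SDS abundance): HeLa Kyoto cells arrested at G1/S by double thymidine block, proteins quantified by TMT10plex mass spectrometry in mild NP-40 versus SDS extracts, three biological replicates.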
Sequence,solubility in G1/S (log2) [1],solubility change mitosis (log2) [2]
MEAAETEAEAAALEVLAEVAGILEPVGLQEEAELPAKILVEFVVDSQKKDKLLCSQLQVADFLQNILAQEDTAKGLDPLASEDTSRQKAIAAKEQWKELKATYREHVEAIKIGLTKALTQMEEAQRKRTQLREAFEQLQAKKQMAMEKRRAVQNQWQLQQEKHLQHLAEVSAEVRERKTGTQQELDRVFQKLGNLKQQAEQERDKLQRYQTFLQLLYTLQGKLLFPEAEAEAENLPDDKPQQPTRPQEQSTGDTMGRDPGVSFKAVGLQPAGDVNLP [ZWINT],-0.0767,0.896
MSEVLPADSGVDTLAVFMASSGTTDVTNRNSPATPPNTLNLRSSHNELLNAEIKHTETKNSTPPKCRKKYALTNIQAAMGLSDPAAQPLLGNGSANIKLVKNGENQLRKAAEQGQQDPNKNLSPTAVINITSEKLEGKEPHPQDSSSCEILPSQPRRTKSFLNYYADLETSARELEQNRGNHHGTAEEKSQPVQGQASTIIGNGDLLLQKPNRPQSSPEDGQVATVSSSPETKKDHPKTGAKTDCALHRIQNLAPSDEESSWTTLSQDSASPSSPDETDIWSDHSFQTDPDLPPGWKRVSDIAGTYYWHIPTGTTQWERPVSIPADLQGSRKGSLSSVTPSPTPENEKQPWSDFAVLNGGKINSDIWKDLHAATVNPDPSLKEFEGATLRYASLKLRNAPHPDDDDSCSINSDPEAKCFAVRSLGWVEMAEEDLAPGKSSVAVNNCIRQLSYCKNDIRDTVGIWGEGKDMYLILENDMLSLVDPMDRSVLHSQPIVSIRVWGVGRDNGRDFAYVARDKDTRILKCHVFRCDTPAKAIATSLHEICSKIMAERKNAKALACSSLQERANVNLDVPLQVDFPTPKTELVQKFHVQYLGMLPVDKPVGMDILNSAIENLMTSSNKEDWLSVNMNVADATVTVISEKNEEEVLVECRVRFLSFMGVGKDVHTFAFIMDTGNQRFECHVFWCEPNAGNVSEAVQAACMLRYQKCLVARPPSQKVRPPPPPADSVTRRVTTNVKRGVLSLIDTLKQKRPVTEMP [APBB2],0.0839,-0.0698
MAETSPEPSGQLVVHSDAHSDTVLASFEDQRKKGFLCDITLIVENVHFRAHKALLAASSEYFSMMFAEEGEIGQSIYMLEGMVADTFGILLEFIYTGYLHASEKSTEQILATAQFLKVYDLVKAYTDFQNNHSSPKPTTLNTAGAPVVVISNKKNDPPKRKRGRPKKVNTLQEEKSELAAEEEIQLRVNNSVQNRQNFVVKGDSGVLNEQIAAKEKEESEPTCEPSREEEMPVEKDENYDPKTEDGQASQSRYSKRRIWRSVKLKDYKLVGDQEDHGSAKRICGRRKRPGGPEARCKDCGKVFKYNHFLAIHQRSHTGERPFKCNECGKGFAQKHSLQVHTRMHTGERPYTCTVCSKALTTKHSLLEHMSLHSGQKSFTCDQCGKYFSQNRQLKSHYRVHTGHSLPECKDCHRKFMDVSQLKKHLRTHTGEKPFTCEICGKSFTAKSSLQTHIRIHRGEKPYSCGICGKSFSDSSAKRRHCILHTGKKPFSCPECNLQFARLDNLKAHLKIHSKEKHASDASSISGSSNTEEVRNILQLQPYQLSTSGEQEIQLLVTDSVHNINFMPGPSQGISIVTAESSQNMTADQAANLTLLTQQPEQLQNLILSAQQEQTEHIQSLNMIESQMGPSQTEPVHVITLSKETLEHLHAHQEQTEELHLATSTSDPAQHLQLTQEPGPPPPTHHVPQPTPLGQEQS [ZBTB24],-0.495,0.142
MQVPQDGEDLAGQPWYHGLLSRQKAEALLQQNGDFLVRASGSRGGNPVISCRWRGSALHFEVFRVALRPRPGRPTALFQLEDEQFPSIPALVHSYMTGRRPLSQATGAVVSRPVTWQGPLRRSFSEDTLMDGPARIEPLRARKWSNSQPADLAHMGRSREDPAGMEASTMPISALPRTSSDPVLLKAPAPLGTVADSLRASDGQLQAKAPTKPPRTPSFELPDASERPPTYCELVPRVPSVQGTSPSQSCPEPEAPWWEAEEDEEEENRCFTRPQAEISFCPHDAPSCLLGPQNRPLEPQVLHTLRGLFLEHHPGSTALHLLLVDCQATGLLGVTRDQRGNMGVSSGLELLTLPHGHHLRLELLERHQTLALAGALAVLGCSGPLEERAAALRGLVELALALRPGAAGDLPGLAAVMGALLMPQVSRLEHTWRQLRRSHTEAALAFEQELKPLMRALDEGAGPCDPGEVALPHVAPMVRLLEGEEVAGPLDESCERLLRTLHGARHMVRDAPKFRKVAAQRLRGFRPNPELREALTTGFVRRLLWGSRGAGAPRAERFEKFQRVLGVLSQRLEPDR [SH2D3A],0.386,0.0323
